The source of these data is PMC5036196.

B1: ARB2-M1 (residues Gln463, His467 and Asp471 mutated to Ala) (domain or fragment)
chain: LQKAIRAQQQAYLSAEFNFVTLPLVSMDLPDNTVLCTPNISESNTIIIVVHDTSDIWAKRNVISGTIDLSSSVIIDNSLDFIKWGLDRKYGIIDVNIPLTLFEPDNYSGMITSQEVLIYLWDNYIKYFPSVAKIAFIGIGDSYSGIVHLLGHRDTRAVTKTVINFLGDKQLKPLVPLVDETLSEWYFKNSLIFSNNSHQCWKENESRKPRKKFGRVLRCDTDGLNNIIEERFEEATDFILDS
B2: ARB2-M3 (residues Val481, Ser482, Met483 and Asp484 mutated to Ala) (domain or fragment)
chain: LQKAIRQQQQHYLSDEFNFVTLPLAAAALPDNTVLCTPNISESNTIIIVVHDTSDIWAKRNVISGTIDLSSSVIIDNSLDFIKWGLDRKYGIIDVNIPLTLFEPDNYSGMITSQEVLIYLWDNYIKYFPSVAKIAFIGIGDSYSGIVHLLGHRDTRAVTKTVINFLGDKQLKPLVPLVDETLSEWYFKNSLIFSNNSHQCWKENESRKPRKKFGRVLRCDTDGLNNIIEERFEEATDFILDS
B3: ARB2-M2 (residues Tyr468 and Glu472 mutated to Ala) (domain or fragment)
chain: LQKAIRQQQQHALSDAFNFVTLPLVSMDLPDNTVLCTPNISESNTIIIVVHDTSDIWAKRNVISGTIDLSSSVIIDNSLDFIKWGLDRKYGIIDVNIPLTLFEPDNYSGMITSQEVLIYLWDNYIKYFPSVAKIAFIGIGDSYSGIVHLLGHRDTRAVTKTVINFLGDKQLKPLVPLVDETLSEWYFKNSLIFSNNSHQCWKENESRKPRKKFGRVLRCDTDGLNNIIEERFEEATDFILDS
B4: ARB2-M4 (residues His604, His608 and Arg609 mutated to Ala) (domain or fragment)
chain: LQKAIRQQQQHYLSDEFNFVTLPLVSMDLPDNTVLCTPNISESNTIIIVVHDTSDIWAKRNVISGTIDLSSSVIIDNSLDFIKWGLDRKYGIIDVNIPLTLFEPDNYSGMITSQEVLIYLWDNYIKYFPSVAKIAFIGIGDSYSGIVALLGAADTRAVTKTVINFLGDKQLKPLVPLVDETLSEWYFKNSLIFSNNSHQCWKENESRKPRKKFGRVLRCDTDGLNNIIEERFEEATDFILDS
B5: ARB2 domain of Hda1 (Hda1^457–698) (domain or fragment)
chain: LQKAIRQQQQHYLSDEFNFVTLPLVSMDLPDNTVLCTPNISESNTIIIVVHDTSDIWAKRNVISGTIDLSSSVIIDNSLDFIKWGLDRKYGIIDVNIPLTLFEPDNYSGMITSQEVLIYLWDNYIKYFPSVAKIAFIGIGDSYSGIVHLLGHRDTRAVTKTVINFLGDKQLKPLVPLVDETLSEWYFKNSLIFSNNSHQCWKENESRKPRKKFGRVLRCDTDGLNNIIEERFEEATDFILDS

For this assay, the target named is yeast histone H2A-H2B dimer (Saccharomyces cerevisiae) (UniProt P04911). The experiment in a line: ITC; ITC200 at 20 °C; 0.5 mM ARB2 or mutant in the injector, 0.2 mM H2A/B or 0.25 mM H3/4 in the sample cell; 25 mM Tris-HCl pH 7.5, 200 mM NaCl; single-site fitting model. (In general: ITC needs no label: the signal is the heat of the interaction.)
B1: the Kd (usually the constant that tells how readily two partners part at equilibrium) was 20.4 µM; the dH is -6.86 kcal/mol; the stoichiometry N (in general, a count of units in the complex or per binding partner) was found to be 0.77.
Taken in the same sequence, the figures for B2 were 27.7 µM, -11.6 kcal/mol and 0.74.
Molecule B3 returned a Kd of 16.9 µM, a dH of -8.9 kcal/mol and a stoichiometry N of 0.64.
The matching figures for B4: 17.4 µM, -11.5 kcal/mol and 0.8.
Taken in the same sequence, the figures for B5 were 5.46 µM, -12.9 kcal/mol and 0.78.
